For six sequences, activity results are on record in US20170099813.

What all share (experiment): cell_activity
For data set [1], the system named is ssSRY1.2 TALEN left monomer (artificial). The note with it: pair with p4; Surveyor day 3, swine fibroblasts.
Data set [2] relates to ssSRY1.3 TALEN left monomer (artificial). The note with it: pair with p6; Surveyor day 3, swine fibroblasts.
Data set [3] deals with ssSRY1.1 TALEN left monomer (artificial). As to conditions: pair with p2; Surveyor day 3, swine fibroblasts; 46.3% HDR with ssODN.
The test system of data set [4] is ssSRY1.2 TALEN right monomer (artificial). The note with it: pair with p3; Surveyor day 3, swine fibroblasts.
The subject of data set [5] is ssSRY1.1 TALEN right monomer (artificial). The note with it: pair with p1; Surveyor day 3, swine fibroblasts; 46.3% HDR with ssODN.
The test system of data set [6] is ssSRY1.3 TALEN right monomer (artificial). The note with it: pair with p5; Surveyor day 3, swine fibroblasts.

Sequence “AGAGAACCCTCAAATG (double strand) [ssSRY1.2 left half-site]” yielded an activity in data set [1] of 35 % NHEJ.

The sequence “CAGCAAGTGGCTGGGA (double strand) [ssSRY1.3 left half-site]” yielded an activity in data set [2] of 16.2 % NHEJ.

“GAACGCTTTCATTGTG (double strand) [ssSRY1.1 left half-site]” yielded an activity in data set [3] of 30 % NHEJ.

On to “GCAAGTGGCTGGGATGC (double strand) [ssSRY1.2 right half-site]”, for which, in data set [4], the activity is 35 % NHEJ.

As for “GGAGAAAAGTGGCTCT (double strand) [ssSRY1.1 right half-site]”, in data set [5], the activity is 30 % NHEJ.

Take “TTACAGAAGCCGAAA (double strand) [ssSRY1.3 right half-site]”: the activity in data set [6] amounted to 16.2 % NHEJ.
